Measurements as given in patent publication US20230293647A1 (AUTOLUS, published 2023).

How the values were obtained:
Experiment in all cases: cell microarray
FcγRIa (cell microarray) = FcγRIa (cell microarray) (human, UniProt P12314 16-374)
[1] = target: SARS-CoV-2 full length Spike expressed on cells (SARS-CoV-2, UniProt P0DTC2 14-1273)
IGF1 = IGF1 (human, UniProt P05019)
TTYH2 = target: T1, TTYH2 (human, UniProt Q9BSA4)
T1 sequence (looked up): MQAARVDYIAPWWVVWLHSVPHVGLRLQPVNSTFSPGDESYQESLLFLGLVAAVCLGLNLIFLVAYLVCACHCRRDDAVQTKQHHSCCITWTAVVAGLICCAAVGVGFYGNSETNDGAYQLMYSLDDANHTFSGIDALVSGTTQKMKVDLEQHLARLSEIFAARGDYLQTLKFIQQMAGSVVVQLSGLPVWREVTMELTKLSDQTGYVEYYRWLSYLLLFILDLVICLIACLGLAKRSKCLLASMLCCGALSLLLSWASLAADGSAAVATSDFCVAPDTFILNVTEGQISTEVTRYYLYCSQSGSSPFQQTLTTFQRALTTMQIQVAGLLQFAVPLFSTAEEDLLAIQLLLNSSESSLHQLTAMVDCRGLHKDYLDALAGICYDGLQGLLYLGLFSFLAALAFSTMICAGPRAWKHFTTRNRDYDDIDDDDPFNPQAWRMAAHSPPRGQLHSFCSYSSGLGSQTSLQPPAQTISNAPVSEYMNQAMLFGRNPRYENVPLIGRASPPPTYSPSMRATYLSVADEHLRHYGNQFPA

CD86 (cell microarray) = target: T2, CD86 (cell microarray) (human, UniProt P42081 24-329)
T2 sequence (looked up): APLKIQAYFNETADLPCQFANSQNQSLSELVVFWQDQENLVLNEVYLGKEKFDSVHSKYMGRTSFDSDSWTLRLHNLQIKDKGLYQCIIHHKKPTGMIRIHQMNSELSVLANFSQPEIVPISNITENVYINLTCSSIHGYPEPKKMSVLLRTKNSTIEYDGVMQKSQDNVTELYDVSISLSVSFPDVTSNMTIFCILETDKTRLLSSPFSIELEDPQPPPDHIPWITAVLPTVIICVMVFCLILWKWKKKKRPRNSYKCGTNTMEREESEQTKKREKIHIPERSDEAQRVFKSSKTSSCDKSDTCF

LGALS1 = LGALS1 (human, UniProt P09382)
TTYH3 V1 = target: T3, TTYH3 V1 (human, UniProt Q9C0H2)
T3 sequence (looked up): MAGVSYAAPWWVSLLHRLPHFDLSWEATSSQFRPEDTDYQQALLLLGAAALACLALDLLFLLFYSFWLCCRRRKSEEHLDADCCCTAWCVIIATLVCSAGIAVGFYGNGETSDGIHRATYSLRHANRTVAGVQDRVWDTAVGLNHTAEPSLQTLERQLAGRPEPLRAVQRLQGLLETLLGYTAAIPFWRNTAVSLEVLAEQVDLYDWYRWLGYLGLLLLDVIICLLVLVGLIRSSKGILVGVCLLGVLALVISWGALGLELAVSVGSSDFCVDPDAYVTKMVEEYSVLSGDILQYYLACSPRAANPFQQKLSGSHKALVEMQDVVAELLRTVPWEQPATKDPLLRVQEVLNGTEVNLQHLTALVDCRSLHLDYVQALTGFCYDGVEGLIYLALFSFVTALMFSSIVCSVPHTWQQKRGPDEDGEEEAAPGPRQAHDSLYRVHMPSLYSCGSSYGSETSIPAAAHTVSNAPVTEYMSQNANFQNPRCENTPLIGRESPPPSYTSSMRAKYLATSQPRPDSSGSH

KCNAB2 = target: T4, KCNAB2 (human, UniProt Q13303)
T4 sequence (looked up): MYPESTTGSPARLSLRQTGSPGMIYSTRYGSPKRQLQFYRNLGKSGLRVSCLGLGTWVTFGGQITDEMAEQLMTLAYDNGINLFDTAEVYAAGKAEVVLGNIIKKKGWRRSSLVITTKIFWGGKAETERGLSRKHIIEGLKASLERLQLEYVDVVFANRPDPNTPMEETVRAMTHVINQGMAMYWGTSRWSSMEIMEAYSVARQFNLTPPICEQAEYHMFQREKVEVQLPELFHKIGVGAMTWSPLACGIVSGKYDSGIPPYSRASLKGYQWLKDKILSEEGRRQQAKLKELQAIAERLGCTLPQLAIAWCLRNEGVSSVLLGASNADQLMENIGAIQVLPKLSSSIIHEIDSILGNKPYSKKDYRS

PRCD = target: T5, PRCD (human, UniProt Q00LT1)
T5 sequence (looked up): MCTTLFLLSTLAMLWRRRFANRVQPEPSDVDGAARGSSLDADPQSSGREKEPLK

SIGLEC14 = target: T6, SIGLEC14 (human, UniProt Q08ET2)
T6 sequence (looked up): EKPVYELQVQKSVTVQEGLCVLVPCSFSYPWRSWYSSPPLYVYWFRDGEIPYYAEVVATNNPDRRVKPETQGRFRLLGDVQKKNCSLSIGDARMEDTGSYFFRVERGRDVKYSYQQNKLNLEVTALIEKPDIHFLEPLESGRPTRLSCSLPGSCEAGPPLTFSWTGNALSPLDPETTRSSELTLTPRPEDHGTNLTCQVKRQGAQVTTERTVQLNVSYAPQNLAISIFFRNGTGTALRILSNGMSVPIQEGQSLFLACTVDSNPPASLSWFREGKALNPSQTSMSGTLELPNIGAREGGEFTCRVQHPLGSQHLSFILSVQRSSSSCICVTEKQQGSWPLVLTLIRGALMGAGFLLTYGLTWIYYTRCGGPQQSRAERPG

EGFR = EGFR (human, UniProt P00533)
CXCL12 = CXCL12 (human, UniProt P48061)

Measured: binding result

Chain of CXCL12 (P48061 22-89 limits assumed): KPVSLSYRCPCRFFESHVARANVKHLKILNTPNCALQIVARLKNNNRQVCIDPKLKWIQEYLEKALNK
Chain of FcγRIa (cell microarray) (P12314 16-374): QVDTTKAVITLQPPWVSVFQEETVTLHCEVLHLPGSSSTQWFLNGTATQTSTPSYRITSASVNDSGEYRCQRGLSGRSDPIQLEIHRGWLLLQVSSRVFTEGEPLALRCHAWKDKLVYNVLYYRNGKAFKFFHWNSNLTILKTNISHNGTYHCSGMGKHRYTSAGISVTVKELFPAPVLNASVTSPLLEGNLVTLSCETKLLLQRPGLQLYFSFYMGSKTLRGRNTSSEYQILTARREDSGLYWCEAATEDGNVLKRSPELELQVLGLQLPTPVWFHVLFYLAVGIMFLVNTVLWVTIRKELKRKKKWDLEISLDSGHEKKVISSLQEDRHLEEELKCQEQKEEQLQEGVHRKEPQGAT
Chain of LGALS1 (P09382 2-135 limits assumed): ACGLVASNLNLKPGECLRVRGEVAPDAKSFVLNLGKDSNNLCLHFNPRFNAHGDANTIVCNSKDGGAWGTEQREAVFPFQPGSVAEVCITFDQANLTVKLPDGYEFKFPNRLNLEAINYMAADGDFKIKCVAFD

B1: Fc LALA-PG only construct with the ACE2 domain omitted (other)
chain: EPKSCDKTHTCPPCPAPEAAGGPSVFLFPPKPKDTLMISRTPEVTCVVVDVSHEDPEVKFNWYVDGVEVHNAKTKPREEQYNSTYRVVSVLTVLHQDWLNGKEYKCKVSNKALGAPIEKTISKAKGQPREPQVYTLPPSREEMTKNQVSLTCLVKGFYPSDIAVEWESNGQPENNYKTTPPVLDSDGSFFLYSKLTVDKSRWQQGNVFSCSVMHEALHNHYTQKSLSLSPGK
notes: also called control Fc (LALA-PG)
no binding: FcγRIa (cell microarray) | [1] | IGF1 | TTYH2 | CD86 (cell microarray) | LGALS1 | TTYH3 V1 | KCNAB2 | PRCD | SIGLEC14 | EGFR | CXCL12
